# Experimental data published in US5849535A (Genentech, Inc., priority 1996, dated 1998).
# T1: hGHbp (Homo sapiens, UniProt P10912)
# T1 construct: the extracellular domain of its receptor (hGHbp)
# T1 sequence (P10912 19-256 limits assumed): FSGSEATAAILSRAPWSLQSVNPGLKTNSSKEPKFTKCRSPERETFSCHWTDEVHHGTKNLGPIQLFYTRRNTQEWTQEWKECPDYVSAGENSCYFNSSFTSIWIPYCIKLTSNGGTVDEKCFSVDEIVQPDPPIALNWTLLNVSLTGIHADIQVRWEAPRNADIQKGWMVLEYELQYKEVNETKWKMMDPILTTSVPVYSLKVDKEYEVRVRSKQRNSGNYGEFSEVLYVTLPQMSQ
# B1: human placental lactogen (protein, UniProt P0DML2 27-217, looked up)
# Chorionic somatomammotropin …: VQTVPLSRLFDHAMLQAHRAHQLAIDTYQEFEETYIPKDQKYSFLHDSQTSFCFSDSIPTPSNMEETQQKSNLELLRISLLLIESWLEPVRFLRSMFANNLVYDTSDSDDYHLLKDLEEGIQTLMGRLEDGSRRTGQILKQTYSKFDTNSHNHDALLKNYGLLYCFRKDMDKVETFLRMVQCRSVEGSCGF
# Assays:
# [1] = test system: IGF-I levels; assay: Single-dose pharmacodynamics, IGF-I levels in Rhesus monkeys; type: in vivo; settings: single dose 1 mg/kg intravenously or subcutaneously; seven-day study
# Experimental: The placebo was 0.5 ml formulation buffer administered subcutaneously. IGF-1 levels were determined as in Example XIII.
# [2] = In vivo half-life of pegylated wild-type hGH in rats
# [3] = target: T1, hGHbp; settings: Lowman et al., J. Biol. Chem.; cited from earlier work
Molecule,longer half-life than the non-pegylated protein [2] [fold],also measured
PEG-4/5-B2036: B2036 preparation containing primarily conjugates with four and five PEG(5000) groups,,"IGF-I levels after single injection [1]: reduced at one day after administration, continued to decrease until four days after administration, and remained low throughout the seven-day study"
"conjugate containing five PEG(5000) groups: pegylated wild-type hGH, approximately 48 kD",~11,
"conjugate containing seven PEG groups: pegylated wild-type hGH, approximately 57 kD",~18,
"wild-type hGH conjugate containing two PEG(5000) groups: pegylated wild-type hGH, approximately 33 kD",~4,
B1,,binds weaker than hGH [3]: ~ 2000 fold
